The values below come from the nanobody polyreactivity screen of Harvey et al. (2022).

The nature of the series: yeast display, Sf9 membrane polyspecificity reagent, FACS + sequencing; frameworks hold sequencing errors. A digest of the protocol: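 In a synthetic yeast display library (Saccharomyces cerevisiae BJ5465), nanobody expression was induced with galactose for 36–48 hours. FACS gates were set low and high (top ~1%) using anti-HA fluorescence for expression and streptavidin fluorescence for binding of the Sf9 membrane reagent. Each polyreactivity label is drawn from the gate of origin.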
Regarding “QVQLVESGGGLVQAGGSLRLSCAASGSTFTPYAMGWYRQAPGKERELVAAISSTGGITYYADSVKGRFTISRDNAKNTVYLQMNSLKPEDTAVYYCAADAYYYGYEYWGQGTQVTVSS”, the “polyreactivity (PSR sort gate)” value was “high polyreactivity”.

For “QVQLVESGGGLVQAGGSLRLSCAASGSTFTPYAMGWYRQAPGKERELVAGITGNGGSTRYADSVKGRFTISRDNAKNTVYLQMNSLKTEDTAVYYCAARWTRERYRTSYYSWGQGTQVTVSS”, the “polyreactivity (PSR sort gate)” value is “high polyreactivity”.

Consider “QVQLVESGGGLVQAGGSLRLSCAASGSTFTPYVMGWYRQAPGKERELVASITGGGGSTYADSVKGRFTISRDNAKNTVYLQMNSLKPEDTAVYYCGARVWRSYNYWGQGTQVTVSS”, for which the “polyreactivity (PSR sort gate)” value is “high polyreactivity”.

Consider “QVQLVESGGGLVQAGGSLRLSCAASGSTFTPYVMGWYRQAPGKEREVVAAISNVGRTYYADSVKGRFTISRDNAKNTVYLQMNSLKPEDTAVYYCAVRRDKNYYDWGQGTQVTVSS”, for which the “polyreactivity (PSR sort gate)” value was “high polyreactivity”.

As for “QVQLVESGGGLVQAGGSLRLSCAASGSTFTRNAMGWYRQAPGKERELVATISSGGSTNYADSVKGRFTISRDNAKNTVYLQMNSLKPEDTAVYYCDKRSLYRYYYWGQGTQVTVSS”, the “polyreactivity (PSR sort gate)” value is recorded as “high polyreactivity”.

As to “QVQLVESGGGLVQAGGSLRLSCAASGSTFTRNAMGWYRQAPGKEWELVAAITSSGGSTYYAASVKGRFTISRDNAKNTVYLQMNSLKPEDNAVYYCAAYPHRPRDPELDHWGQGTQVTVSS”, the “polyreactivity (PSR sort gate)” value is on record as “low polyreactivity”.

Take “QVQLVESGGGLVQAGGSLRLSCAASGSTFTRNTMGWYKQAPGKERELVAAISRRGGRTDYADSVKGRFTISRDNAKNTVYLQMNSLKPEDTAVYYCAADPITVDQNPRYGYWGQGTQVTVSS”: the “polyreactivity (PSR sort gate)” value is on record as “high polyreactivity”.

For “QVQLVESGGGLVQAGGSLRLSCAASGSTFTRNTMGWYRQAPGKERELVAVISRRGGSTYYADSVKGRFTISRDNAKNTVYLQMNSLKPEDTAVYYCNTAAYRLQYEYWGQGTQVTVSS”, the “polyreactivity (PSR sort gate)” value is listed as “high polyreactivity”.

“QVQLVESGGGLVQAGGSLRLSCAASGSTFTRYAMGSYRQAPGKERELVAAISRTGGSRTYYADSVKGRFTISRDNAKNTVYLQMNSLNPEDTAVYYCAKGYWRYLGFLYFFPARDYWGQGTQVTVSS”: the “polyreactivity (PSR sort gate)” value is recorded as “high polyreactivity”.

For the sequence “QVQLVESGGGLVQAGGSLRLSCAASGSTFTRYAMGWYRQAPGKEREFVAAINWSGTSTYYADSVKGRFTISRDTAKNTVYLQMNSLKPEDTAVYYCNAYTVRSYRFDYWGQGTQVTVSS”, the “polyreactivity (PSR sort gate)” value is “high polyreactivity”.

On to “QVQLVESGGGLVQAGGSLRLSCAASGSTFTSNVMGWYRQAPGKERELVAAISQSGGRTYYADSVKGRFTISRDNAKNTVYLQMNSLKPEDTAVYYCAASYVHYHMDYWGQGTQVTVSS”, for which the “polyreactivity (PSR sort gate)” value was “high polyreactivity”.

“QVQLVESGGGLVQAGGSLRLSCAASGSTFTSNVMGWYRQAPGKERELVAAISTNGGRTYYADSVKGRFTISRDNAKNTVYLQMNSLKPEDTAVYYCAASLPRPGIGGRDYWGQGTQVTVSS”: the “polyreactivity (PSR sort gate)” value is “low polyreactivity”.

Take “QVQLVESGGGLVQAGGSLRLSCAASGSTFTSYVMGWYRQAPGKEREFVAAITSSGGDTYYADSVKGRFTISRDNAKNTVYVQMNSLKPEDTEVYYCATRSYYRSSYYRNRYPYDYWGQGTLVTVSS”: the “polyreactivity (PSR sort gate)” value is given as “low polyreactivity”.

Regarding “QVQLVESGGGLVQAGGSLRLSCAASGSTFTTNAMGWSRQAPGNERELVATISGGGSTYYADSVKGRFTISRDNAKNTVYLQMNSLKPEDTAVYDCATDVQVPGIGRSVYAYEYWGQGTQVTVSS”, the “polyreactivity (PSR sort gate)” value is recorded as “low polyreactivity”.

Take “QVQLVESGGGLVQAGGSLRLSCAASGSTFTTNAMGWYRQAPGKERELVASITWSGGGTNYADSVKGRFTISRDNAKNSVFLQMNSLKPEDTAVYSCADDYDDSHLRSDYWGQGTQVTVSS”: the “polyreactivity (PSR sort gate)” value is recorded as “low polyreactivity”.

Regarding “QVQLVESGGGLVQAGGSLRLSCAASGSTFTTYAMGWYRQAPGKERELVAAISNNGGRTFYADSVKGRFTISRDNAKNTVYLQMNSLKPEDTAVYYCAAEYGLYAPGYYYWGQGTQVTVSS”, the “polyreactivity (PSR sort gate)” value was “low polyreactivity”.

On to “QVQLVESGGGLVQAGGSLRLSCAASGSTFTTYAMGWYRQAPGKERELVAAISYGGGSTYYADSVKGRFTISRDNAKNTVYLQMNSLKPEDTAVYFCAAVAWASDGYDSWGQGTQVTVSS”, for which the “polyreactivity (PSR sort gate)” value is on record as “low polyreactivity”.

With “QVQLVESGGGLVQAGGSLRLSCAASGSTFTTYAMGWYRQATGKERELVASITWRGGSTYADSVKGRFTISRDNAKNTVYLEMNSLKPEDTAVYYCAAATRASAQFPRQRYYYWGQGTQVTVSS”, the “polyreactivity (PSR sort gate)” value is recorded as “high polyreactivity”.

For the sequence “QVQLVESGGGLVQAGGSLRLSCAASGSTFTTYDMGWYRQAPGKERELVAGITGSGTSTFYADSVKGRFTISRDNAKNTVYLQMKSLKPEDTAVYYCATDWYTPEEYVTGAIEEYYWGQGTLVTVSS”, the “polyreactivity (PSR sort gate)” value is reported as “low polyreactivity”.

As to “QVQLVESGGGLVQAGGSLRLSCAASGSTFTVYAMGWYRQAPGKERELVAAITVSTDSTYYADSVKGRFTISRDNAKNTVYLQMNSLKPEDTAVYYCAADSARSGYGRYDSWGQGTQVTVSS”, the “polyreactivity (PSR sort gate)” value is “low polyreactivity”.

“QVQLVESGGGLVQAGGSLRLSCAASGSTFTWNGMGWYRQAPGKERELVATISYGGGRTYYADSVKGRFTISRDNAKNTVYLQMNSLKPEDTAVYYCAADFTRYTQVHALRLSEYWGQGTQVTVSS”: the “polyreactivity (PSR sort gate)” value is “low polyreactivity”.

Take “QVQLVESGGGLVQAGGSLRLSCAASGSTFTWYAMGWYRQAPGKERELVAAIRWSGGNTYYADSVKGRFTISRDTAKNTVYLHMNSLKPEDTGVYYCAAVSRTYSLQMYYWGQGTQVTVSS”: the “polyreactivity (PSR sort gate)” value is “high polyreactivity”.

Turning to “QVQLVESGGGLVQAGGSLRLSCAASGSTFTYNAMGWYRHAPGKERELVASISSGTTTYYADSVKGRFTISRDNAKNTVYLQLNSLKPEDTAVYFCAVDSWSRVQGWLAHNYDYWGQGTQVTVSS”, the “polyreactivity (PSR sort gate)” value is reported as “low polyreactivity”.

For “QVQLVESGGGLVQAGGSLRLSCAASGSTFTYNAMGWYRQAPGKVRELVASISSGTTTYYADSVKGRFTISRDNAKNTVYLQMNSLTPEDTAVYYCAVDSWSRVQGWLAHNYDYWGQGTQVTVSS”, the “polyreactivity (PSR sort gate)” value is given as “low polyreactivity”.

As for “QVQLVESGGGLVQAGGSLRLSCAASGSTFTYNDMGWYRQAPGKERELVARITFSSGRTYYADSVKGRFTISRDNAKNTVYLQMNSLKPEDTAVYYCARQWYWRPGYYIGQGYEYWGQGTQVTVSS”, the “polyreactivity (PSR sort gate)” value is listed as “low polyreactivity”.

As for “QVQLVESGGGLVQAGGSLRLSCAASGSTFTYYAMGWYRQAPGKERELVAAIDFSGTSTYYADSVKGRFTISRDNAKNTVYLQMNRLKPEDTAVYYCAASQSWYWGGAHDNGEFGYWGQGTQVTVSS”, the “polyreactivity (PSR sort gate)” value is “low polyreactivity”.

Regarding “QVQLVESGGGLVQAGGSLRLSCAASGSTFTYYAMGWYRQAPGKERELVAAISRGGRTNYADSVKGRFTISRDNAKNTVYLQMNSLKPEDTAVYFCAAVVFRTGIWFDYWGQGTQVTVSS”, the “polyreactivity (PSR sort gate)” value is “high polyreactivity”.

Consider “QVQLVESGGGLVQAGGSLRLSCAASGSTFTYYAMGWYRQAPGKERELVAAITSGGSTNYADSVKGRFTISRDNAKNTVYLQMNSLKPEDTAVYYCAAEYVRQNYEMDYWGQGTQVTVSS”, for which the “polyreactivity (PSR sort gate)” value is listed as “low polyreactivity”.

Turning to “QVQLVESGGGLVQAGGSLRLSCAASGSTFTYYTMGWYRQAPGKERELVAAITSGTSTNYADSVKGRFTISRDNAKNTVYLQMNSLKPEDTAVYYEYDYWGQGTQVTVSS”, the “polyreactivity (PSR sort gate)” value is “low polyreactivity”.

For the sequence “QVQLVESGGGLVQAGGSLRLSCAASGSTFTYYTMGWYRQAPGKERELVAAITSGTSTNYADSVKGRFTISRDNAKNTVYLQMNSLTPEDTAVYYEYDYWGQGTQVTVSS”, the “polyreactivity (PSR sort gate)” value is on record as “low polyreactivity”.

For “QVQLVESGGGLVQAGGSLRLSCAASGSTFVAYAMGWYRHAPGKERELVADISTSDGSTRYADSVKGRFTISSDNAKNTVYLQMISLKPEDTAVYYCGAGSEYYSYGGVRFSFYYWGQGTQVTVSS”, the “polyreactivity (PSR sort gate)” value is given as “low polyreactivity”.

Turning to “QVQLVESGGGLVQAGGSLRLSCAASGSTFVAYAMGWYRQAPGKERELVAAISSVGRTNYADSVKGRFTISRDNAKNTVYLQMNSLIPEDTAVYYCNVEPGGITRQEYDYWGQGTQVTVSS”, the “polyreactivity (PSR sort gate)” value is “high polyreactivity”.

As to “QVQLVESGGGLVQAGGSLRLSCAASGSTFVCYGMGWYRQAPGKEREFVAAISTSGGRTYYADSVKGRFSISRDNAKNTVYLQMNSLKQEDTAVYYCATRPYFTYRWYDYWGQGTKVTVSS”, the “polyreactivity (PSR sort gate)” value was “high polyreactivity”.

Consider “QVQLVESGGGLVQAGGSLRLSCAASGSTFVDYAMGWDRQAPGKERELVAGINGSGGSTYYADSVKGRFTISRDNAKNTVYLQMNSLKPEDTAVYYCAKDGSNRLALPAWDYNYWGQGTQVTVSS”, for which the “polyreactivity (PSR sort gate)” value is reported as “low polyreactivity”.

Turning to “QVQLVESGGGLVQAGGSLRLSCAASGSTFVDYAMGWYRQAPGKERELVAAINERGGSTYYADSVKGRFTISRDNAKNTVYLQMNSLKPEDTAVYYCAKQLWVGVKYDYWGQGTQVTVSS”, the “polyreactivity (PSR sort gate)” value is recorded as “low polyreactivity”.

Consider “QVQLVESGGGLVQAGGSLRLSCAASGSTFVDYDMGWYRQAPGKERELVAAITYSGARTYYADSVKGRFTISRDNAKNTVYLKMNSLKPEDTAVYYCNADQRSASDQLEFDYWGQGTQVTVSS”, for which the “polyreactivity (PSR sort gate)” value is given as “low polyreactivity”.

On to “QVQLVESGGGLVQAGGSLRLSCAASGSTFVDYYMGWYRQATGKERELVAAITYSGARTYYADSVKGRFTISRDNAKNTVYLQMNSLKPEDTAVYYCNADQSTASDQLEFDYWGQGTQVTVSS”, for which the “polyreactivity (PSR sort gate)” value is given as “low polyreactivity”.

For the sequence “QVQLVESGGGLVQAGGSLRLSCAASGSTFVFNAMGWYRQAPGKERELVAAISIDGSTNYADSVKGRFTISRDNANNSVYLQMNSLKPEDTAVYYCNAKRYGFFYWQGDYWGQGTQVTVSS”, the “polyreactivity (PSR sort gate)” value is given as “low polyreactivity”.

Take “QVQLVESGGGLVQAGGSLRLSCAASGSTFVFNAMGWYRQAPGKERELVARITTGGSTHYADSVKGRFTISRDNAKNTVYLQMNSLKPEDTAVYYCNTGPYTFDSPEYYYWGQGTQVTVSS”: the “polyreactivity (PSR sort gate)” value is given as “low polyreactivity”.

As to “QVQLVESGGGLVQAGGSLRLSCAASGSTFVGYAMGCYRQAPGKERELVATISWIGVRTYYADSVKGRFTISRDNAKNTVYLQMNSLKPEDTAVYYCANRKGYSARSFWRLYEPENDYWGQGTQVNVSS”, the “polyreactivity (PSR sort gate)” value is reported as “high polyreactivity”.

Consider “QVQLVESGGGLVQAGGSLRLSCAASGSTFVGYAMGWYRQAPGKERELVAAISWRGTRTYYADSVKGRFTISRDNAKNTVYLQMNSLKPEDTAVYYCAAVARQGKGYDYWGQGTQVTVSS”, for which the “polyreactivity (PSR sort gate)” value is recorded as “high polyreactivity”.
